Tests used:
[1] = target: T1, human GPC3 on cells (human, UniProt P51654 25-554); experiment: FACS, GPC3-CHOK1 cells
T1 construct: whole, on cells; over-expressed on CHOK1 cells or endogenous on HEPG2, Hep3B and Huh-7 hepatocellular carcinoma cells; the cell line is named under assay; also called GPC3-CHOK1 cells; human GPC3 over-expressed CHOK1 cells
Procedure, shortened: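 After Fc blocking (4 °C, 15 min), GPC3-CHOK1 cells were incubated for 60 min at 4 °C with 3-fold serially diluted chimeric mAbs starting at 30 μg/mL. Cells then washed and fixed in 2% PFA at room temperature for 15 min.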

[2] = target: T1, human GPC3 on cells; experiment: FACS, Huh-7 cells
Method: (§1) To evaluate the antigen binding property, the humanized antibodies were analyzed for their binding to human GPC3 over-expressed CHOK1 cells and Huh-7 cells by FACS. Briefly, GPC3-CHOK1 cells and Huh-7 cells were firstly incubated with Fc blocking reagent at 4° C. for 15 mins. Cells were washed by FACS buffer and divided to each well with 4-fold serially diluted humanized antibodies starting at 10 μg/mL at 4° C. for 60 mins. Cells were washed by FACS buffer and fixed with 2% PFA at RT for 15 mins. […] As different plates might affect the EC50 of 52H5D3B8-VH+VL, the 12 humanized antibodies were separated into two plates.

[3] = target: T1, human GPC3 on cells; experiment: FACS, GPC3-CHOK1 cells; remark: listed apart in the source
Method: as §1

[4] = target: T1, human GPC3 on cells; experiment: FACS, GPC3-CHOK1 cells; remark: listed apart in the source
Method: (§2) Cell-based binding: FACS was used to evaluate the binding activity of 52H5D3B8, 52H5D3B8-6 # chimeric mAbs and GC33 antibody on human GPC3 over-expressed CHOK1 cells, Hep3B cells and Huh-7 cells.
(§3) Briefly, GPC3-CHOK1 cells, Hep3B cells or Huh-7 cells were firstly incubated with Fc blocking reagent at 4° C. for 15 mins. Cells were washed by FACS buffer and divided to each well with 3-fold serially diluted 52H5D3B8, 52H5D3B8-6 # chimeric mAbs or GC33 antibody starting at 30 μg/mL at 4° C. for 60 mins. Cells were washed by FACS buffer and fixed with 2% PFA at RT for 15 mins. […] Samples were washed twice with FACS buffer.

[5] = target: T1, human GPC3 on cells; experiment: FACS, GPC3-CHOK1 cells; remark: listed apart in the source
Method: Cell-based binding: FACS was used to evaluate the binding activity of chimeric mAbs (18C1D9, 52H5D3B8, 163E7D12, 172B4E9, 152E9F7 and 171F9C5) with comparison to a known GPC3 antibody GC33 (Chugai Pharmaceutical) on human GPC3 over-expressed CHOK1 cells.
Briefly, GPC3-CHOK1 cells were washed by FACS buffer and divided to each well with 3-fold serially diluted chimeric mAbs or GC33 mAb starting at 5 μg/mL at 4° C. for 40 mins. […] Samples were washed twice with FACS buffer.

[6] = target: T1, human GPC3 on cells; experiment: FACS, Hep3B cells
Method: (§4) Cell-based binding: FACS was used to evaluate the binding activity of 52H5D3B8 chimeric mAbs with comparison to a known GPC3 antibody GC33 (Chugai Pharmaceutical) on human GPC3 over-expressed CHOK1 cells, HEPG2 cells, Hep3B cells and Huh-7 cells.
as §3, with “GPC3-CHOK1 cells, HEPG2” for “GPC3-CHOK1”, “52H5D3B8” for “52H5D3B8, 52H5D3B8-6 #”, “mAb” for “antibody”

[7] = target: T1, human GPC3 on cells; experiment: FACS, Hep3B cells; remark: listed apart in the source
Method: as §2, §3

[8] = target: T2, human GPC3 protein (ELISA coat) (human, UniProt P51654 25-559, limits assumed); experiment: ELISA, coated human GPC3
T2 construct: protein coated on plates in the cross species ELISA
Method: ELISA testing was carried out to evaluate the binding of chimeric antibodies to human, mouse and cynomolgus GPC3, respectively.
Briefly, microtiter plates were coated with human, mouse and cynomolgus GPC3 proteins at 1 μg/ml in PBS, 100 μl/well at 4° C. overnight, then blocked with 150 μl/well of 1% BSA. Three-fold dilutions of chimeric antibodies starting from 9 μg/ml were added to each well and incubated for 1 hour at 37° C. The plates were washed with PBS/Tween and then incubate with mouse-anti-human IgG Fc antibody conjugated with Horse Radish Peroxidase (HRP) for 30 mins at 37° C. After washing, the plates were developed with TMB substrate and analyzed by spectrophotometer at OD 450 nm. The 52H5D3B8 antibody bound to human, cynomolgus GPC3 and mouse GPC3 (FIG. 3 and Table 4).

[9] = target: T1, human GPC3 on cells; experiment: FACS, Huh-7 cells; remark: listed apart in the source
Method: as §4
as §3, with “GPC3-CHOK1 cells, HEPG2” for “GPC3-CHOK1”, “52H5D3B8” for “52H5D3B8, 52H5D3B8-6 #”, “mAb” for “antibody”

[10] = target: T1, human GPC3 on cells; experiment: FACS, Huh-7 cells; remark: listed apart in the source
Method: as §2, §3

EC50 [1]: 0.0705 µg/mL | EC50 [2]: 0.0469 µg/mL | EC50 [3]: 0.0477 µg/mL | EC50 [4]: 0.07 µg/mL | EC50 [5]: 0.0909 µg/mL | EC50 [6]: 0.192 µg/mL | EC50 [7]: 0.217 µg/mL | EC50 [8]: 0.017 µg/mL | EC50 [9]: 0.0986 µg/mL | EC50 [10]: 0.0795 µg/mL
B1: 52H5D3B8 chimeric mAb (antibody, V domains shown)
VH: QVQLQQSGAELVRPGASVKLSCKALGYTFTDYEMHWVKQTPVHGLEWIGAIHPGSGGTAYNQKFKGKATLTADKFSSTGYMELSSLTSEDSAVYYCTRFYSYAYWGQGTLVTVSA
VL: DVVMTQTPLSLPVSLGDQASISCRSSQSLVHSNGNTYLQWYLQKPGQSPKLLIYKVSNRFSGVPDRFSGSGSGTDFILKISRVEAEDLGVYFCSQSIHVPYTFGGGTKLEIK
notes: also called 52H5D3B8-VH+VL; chimeric 52H5D3B8 mAb

— patent US20240409663A1 (CONCEPT TO MEDICINE BIOTECH, published 2024)
